Test results published in patent US20090104178A1 (published 2009).

molecular target: Purified recombinant EV CrmD protein (ectromelia virus)

Row | Binder | Kd [nM]
1 | hCCL28 (ligand) chemokine: SEAILPIASSCCTEVSHHISRRLLERVNMCRIQRADGDCDLAAVILHVKRRRICVSPHNHTVKQWMKVQAAKKNGKGNVCHRKKHHGKRNSNRAHQGKHETYGHKTPY | 2.8
2 | mCCL25 (ligand) QGAFEDCCLGYQHRIKWNVLRHARNYHQQEVSGSCNLRAVRFYFRQKVVCGNPEDMNVKRAMRILTARKRLVHWKSASDSQTERKKSNHMKSKVENPNSTSVRSATLGHPRMVMMPRKTNN | 3.2
3 | mCXCL14 (ligand) SKCKCSRKGPKIRYSDVKKLEMKPKYPHCEEKMVIVTTKSMSRYRGQEHCLHPKLQSTKRFIKWYNAWNEKRRVYEE | 3.2
4 | hCXCL14 (ligand) chemokine: SKCKCSRKGPKIRYSDVKKLEMKPKYPHCEEKMVIITTKSVSRYRGQEHCLHPKLQSTKRFIKWYNAWNEKRRVYEE | 7.1
5 | hCXCL13 (ligand) chemokine: VLEVYYTSLRCRCVQESSVFIPRRFIDRIQILPRGNGCPRKEIIVWKKNKSIVCVDPQAEWIQRMMEVLRKRSSSTLPVPVFKRKIP | 7.4
6 | mCCL27 (ligand) LPLPSSTSCCTQLYRQPLPSRLLRRIVHMELQEADGDCHLQAVVLHLARRSVCVHPQNRSLARWLERQGKRLQGTVPSLNLVLQKKMYSHPQQQN | 8.5
